Results reported in patent publication US20150344570A1 (published 2015).

B1: GpH7-A5/GpH7-B3 variant T335_01G/GpL16-k0 (antibody, human IgG1, kappa)
heavy 1: not shown
heavy 2: not shown
light: DIVMTQSPLSLPVTPGEPASISCQASESLVHSNRNTYLHWYLQKPGQSPQLLIYKVSNRFSGVPDRFSGSGSGTDFTLKISRVEAEDVGVYYCSQNTHVPPTFGQGTKVEIERTVAAPSVFIFPPSDEQLKSGTASVVCLLNNFYPREAKVQWKVDNALQSGNSQESVTEQDSKDSTYSLSSTLTLSKADYEKHKVYACEVTHQGLSSPVTKSFNRGEC
notes: heterodimerized IgG1, mutation in one H chain only; also called He Ab
B2: GpH7-A5/GpH7-B3 variant Y296_13S/GpL16-k0 (antibody, human IgG1, kappa)
heavy 1: not shown
heavy 2: not shown
light: DIVMTQSPLSLPVTPGEPASISCQASESLVHSNRNTYLHWYLQKPGQSPQLLIYKVSNRFSGVPDRFSGSGSGTDFTLKISRVEAEDVGVYYCSQNTHVPPTFGQGTKVEIERTVAAPSVFIFPPSDEQLKSGTASVVCLLNNFYPREAKVQWKVDNALQSGNSQESVTEQDSKDSTYSLSSTLTLSKADYEKHKVYACEVTHQGLSSPVTKSFNRGEC
notes: as for B1
B3: GpH7-A5/GpH7-B3 variant T335_06M/GpL16-k0 (antibody, human IgG1, kappa)
heavy 1: not shown
heavy 2: not shown
light: DIVMTQSPLSLPVTPGEPASISCQASESLVHSNRNTYLHWYLQKPGQSPQLLIYKVSNRFSGVPDRFSGSGSGTDFTLKISRVEAEDVGVYYCSQNTHVPPTFGQGTKVEIERTVAAPSVFIFPPSDEQLKSGTASVVCLLNNFYPREAKVQWKVDNALQSGNSQESVTEQDSKDSTYSLSSTLTLSKADYEKHKVYACEVTHQGLSSPVTKSFNRGEC
notes: as for B1
B4: GpH7-A5/GpH7-B3 variant Y296_16H/GpL16-k0 (antibody, human IgG1, kappa)
heavy 1: not shown
heavy 2: not shown
light: DIVMTQSPLSLPVTPGEPASISCQASESLVHSNRNTYLHWYLQKPGQSPQLLIYKVSNRFSGVPDRFSGSGSGTDFTLKISRVEAEDVGVYYCSQNTHVPPTFGQGTKVEIERTVAAPSVFIFPPSDEQLKSGTASVVCLLNNFYPREAKVQWKVDNALQSGNSQESVTEQDSKDSTYSLSSTLTLSKADYEKHKVYACEVTHQGLSSPVTKSFNRGEC
notes: as for B1
B5: GpH7-A5/GpH7-B3 variant Y296_07I/GpL16-k0 (antibody, human IgG1, kappa)
heavy 1: not shown
heavy 2: not shown
light: DIVMTQSPLSLPVTPGEPASISCQASESLVHSNRNTYLHWYLQKPGQSPQLLIYKVSNRFSGVPDRFSGSGSGTDFTLKISRVEAEDVGVYYCSQNTHVPPTFGQGTKVEIERTVAAPSVFIFPPSDEQLKSGTASVVCLLNNFYPREAKVQWKVDNALQSGNSQESVTEQDSKDSTYSLSSTLTLSKADYEKHKVYACEVTHQGLSSPVTKSFNRGEC
notes: as for B1
B6: GpH7-A5/GpH7-B3 variant Y300_04F/GpL16-k0 (antibody, human IgG1, kappa)
heavy 1: not shown
heavy 2: not shown
light: DIVMTQSPLSLPVTPGEPASISCQASESLVHSNRNTYLHWYLQKPGQSPQLLIYKVSNRFSGVPDRFSGSGSGTDFTLKISRVEAEDVGVYYCSQNTHVPPTFGQGTKVEIERTVAAPSVFIFPPSDEQLKSGTASVVCLLNNFYPREAKVQWKVDNALQSGNSQESVTEQDSKDSTYSLSSTLTLSKADYEKHKVYACEVTHQGLSSPVTKSFNRGEC
notes: as for B1
B7: GpH7-A5/GpH7-B3 variant S267_11K/GpL16-k0 (antibody, human IgG1, kappa)
heavy 1: not shown
heavy 2: not shown
light: DIVMTQSPLSLPVTPGEPASISCQASESLVHSNRNTYLHWYLQKPGQSPQLLIYKVSNRFSGVPDRFSGSGSGTDFTLKISRVEAEDVGVYYCSQNTHVPPTFGQGTKVEIERTVAAPSVFIFPPSDEQLKSGTASVVCLLNNFYPREAKVQWKVDNALQSGNSQESVTEQDSKDSTYSLSSTLTLSKADYEKHKVYACEVTHQGLSSPVTKSFNRGEC
notes: He Ab; alteration in one H chain only; also called He Ab
B8: GpH7-A5/GpH7-B3 variant Y296_06M/GpL16-k0 (antibody, human IgG1, kappa)
heavy 1: not shown
heavy 2: not shown
light: DIVMTQSPLSLPVTPGEPASISCQASESLVHSNRNTYLHWYLQKPGQSPQLLIYKVSNRFSGVPDRFSGSGSGTDFTLKISRVEAEDVGVYYCSQNTHVPPTFGQGTKVEIERTVAAPSVFIFPPSDEQLKSGTASVVCLLNNFYPREAKVQWKVDNALQSGNSQESVTEQDSKDSTYSLSSTLTLSKADYEKHKVYACEVTHQGLSSPVTKSFNRGEC
notes: as for B1
B9: GpH7-A5/GpH7-B3 variant Y300_18N/GpL16-k0 (antibody, human IgG1, kappa)
heavy 1: not shown
heavy 2: not shown
light: DIVMTQSPLSLPVTPGEPASISCQASESLVHSNRNTYLHWYLQKPGQSPQLLIYKVSNRFSGVPDRFSGSGSGTDFTLKISRVEAEDVGVYYCSQNTHVPPTFGQGTKVEIERTVAAPSVFIFPPSDEQLKSGTASVVCLLNNFYPREAKVQWKVDNALQSGNSQESVTEQDSKDSTYSLSSTLTLSKADYEKHKVYACEVTHQGLSSPVTKSFNRGEC
notes: as for B1

Legend:
[1] = biological target: T1, FcγRIIa R (FcγRIIa allotype with Arg at position 131), extracellular domain with C-terminal His tag (human, UniProt P12318 34-217); assay: SPR (Biacore), antibody captured, FcγR analyte; vs GpH7-A5/GpH7-B3/GpL16-k0 = 100
T1 construct: extracellular domain; made in FreeStyle293 cells; analyte in the Biacore assay; also called FcγRIIa type R; 2aR
T1 sequence (looked up): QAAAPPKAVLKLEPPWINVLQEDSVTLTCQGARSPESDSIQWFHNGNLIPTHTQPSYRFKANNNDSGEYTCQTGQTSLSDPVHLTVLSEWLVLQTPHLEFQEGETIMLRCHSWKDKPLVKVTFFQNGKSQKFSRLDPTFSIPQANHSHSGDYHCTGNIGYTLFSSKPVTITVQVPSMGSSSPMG

[2] = biological target: T2, FcγRIIb, extracellular domain with C-terminal His tag (human, UniProt P31994 43-217); assay: as above
T2 construct: extracellular domain; made in FreeStyle293 cells; analyte in the Biacore assay; also called 2b; FcgRIIb
T2 sequence (looked up): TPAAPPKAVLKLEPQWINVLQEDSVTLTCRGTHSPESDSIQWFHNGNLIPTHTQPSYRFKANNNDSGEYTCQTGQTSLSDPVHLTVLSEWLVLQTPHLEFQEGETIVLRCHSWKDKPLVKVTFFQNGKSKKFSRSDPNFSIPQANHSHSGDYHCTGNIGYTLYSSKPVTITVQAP

[3] = biological target: T3, FcγRIIb, extracellular domain with C-terminal His tag (human, UniProt P31994 43-217); assay: SPR (Biacore), relative binding, GpH7-A5/GpH7-B3/GpL16-k0 = 100
T3 construct: extracellular domain; also called 2b; FcgRIIb; not shown: His tag at the C terminus
T3 sequence (looked up): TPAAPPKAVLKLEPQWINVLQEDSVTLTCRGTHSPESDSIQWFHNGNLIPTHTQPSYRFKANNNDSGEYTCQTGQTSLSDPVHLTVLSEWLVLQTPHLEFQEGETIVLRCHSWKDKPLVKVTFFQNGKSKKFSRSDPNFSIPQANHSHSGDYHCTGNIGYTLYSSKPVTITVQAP

Binder	He/Con_2aR [1]	He/Con_2b [2]	He/Con_2b [3]
B1	104 relative (HeCon Ab = 100)	96.7 relative (HeCon Ab = 100)	
B2	102 relative (HeCon Ab = 100)	86.3 relative (HeCon Ab = 100)	
B3	105 relative (HeCon Ab = 100)	99.4 relative (HeCon Ab = 100)	
B4	105 relative (HeCon Ab = 100)	92.2 relative (HeCon Ab = 100)	
B5	101 relative (HeCon Ab = 100)	84.3 relative (HeCon Ab = 100)	
B6	108 relative (HeCon Ab = 100)	94.8 relative (HeCon Ab = 100)	
B7			12.2 % of control
B8	101 relative (HeCon Ab = 100)	87.8 relative (HeCon Ab = 100)	
B9	100 relative (HeCon Ab = 100)	82.7 relative (HeCon Ab = 100)	
